Source: article PMC10063446 (Nature Immunology, 2023)

Tests used:
[1] = biological target: T1, recombinant wild-type SARS-CoV-2 S trimer (ELISA antigen) (SARS-CoV-2 wild-type, UniProt P0DTC2); assay: ELISA; conditions: one partner purified
T1 construct: also called S^WT trimer; recombinant S protein; source: bought: Sino Biological

[2] = biological target: SARS-CoV-2 RBD immobilised on the CM5 chip (SARS-CoV-2 wild-type (assumed)); assay: SPR; conditions: both partners purified
[3] = biological target: T2, wild-type SARS-CoV-2 S protein expressed on the surface of HEK 293T cells (SARS-CoV-2 wild-type (MN908947.3), UniProt P0DTC2); assay: flow cytometry on cells; conditions: one partner purified
T2 construct: also called S^WT protein

[4] = biological target: T3, recombinant RBD protein of wild-type SARS-CoV-2 (ELISA antigen) (SARS-CoV-2 wild-type, UniProt P0DTC2); assay: ELISA; conditions: one partner purified
T3 construct: No catalogue number printed

Binder	binding result [1]	binding result [2]	binding result [3]	binding result [4]
P5-1C8 (full IgG1) (antibody, V domains shown) VH: EVQLVESGGGLIQPGGSLRLSCAASEIIVSRNYMNWVRQAPGKGLEWVSVIYSGGSTFYADSVKGRFTISRDNSENTLYLQMNSLRAEDTAVYYCARGYGDYYFDYWGRGTLVTVSS VL: not shown	binds			
P5S-3B11 (full IgG1) (antibody, V domains shown, IgG1; group 2) VH: EVQLVESGGGLVQPGGSLRISCAASGLTFTGYWMNWVRQAPGKGLEWVANIKEDGSEKYYVDSVKGRFTISRDNAKNSLYLQMNSLRVEDTAVYYCARLRWLRGNFDHWGQGTLVTVSS VL: NFMLTQPHSVSESPGKTVTISCTGSNGYIANNYVQWYQQRPGSVPTVVIYEDNQRPSGVPDRFSGSIDSSSNSASLIISGLKTEDEADYYCQSYDTPNVVFGGGTKLTVL		binds		
P2-1B1 (full IgG1) (antibody, V domains shown) VH: QVQLVQSGAEVKRPGSSVKVSCKASGGTFSSYAISWVRQAPGQGPEWMGGIIPIFGTPHNAQKFQGRVTITADESTSTAYMELSSLRSEDTAMYYCSRTKGDILTGYTDYYFDSWGQGTLVTVSS VL: not shown	binds			
P2S-2E9 (full IgG1) (antibody, V domains shown) VH: QITLKESGPTLVKPTQTLTLTCTFSGFSLSTSGVGVGWIRQPPGKALEWLALIYWDDDKRYSPSLKSRLTITKDTSKNQVVLTMTNMDPVDTATYYCARHRIGYIFDYWGQGTLVTVSS VL: QSALTQPASVSGSPGQSITISCTGTSSDVGDFNYVSWYQQHPGKAPKLMIYDVTKRPSGVSNRFSGSKSGNTASLTISGLQAEDEADYCCSSYTTSSISFGGGTKLTVL	binds	binds	binds	binds
P5-1H1 (full IgG1) (antibody, V domains shown) VH: EVQLVESGGGLIQPGGSLRLSCAASGITVSSNYMTWVRQPPGKGLEWVSVIYSGGSTFYADPVKGRFTISRDNSRNTLYLQMNSLRAEDTAVYYCARDLQVYGMDVWGQGTTVTVSS VL: DIQLTQSPSFLSASVGDRVTITCRASQGISNFLAWYQQKPGKAPKLLIYAASTLQGGVPSTFSGSGSGTEFTLTISSLQPEDFATYYCQHLNDYPLFGGGTRVEIK	binds		binds	
